Results: publication PMC6232587, “Human RNA cap1 methyltransferase CMTr1 cooperates with RNA helicase DHX15 to modify RNAs with highly structured 5′ termini” (Philosophical Transactions of the Royal Society B: …, 2018)

B1: Recombinant DHX15 with His-tag (enzyme, human, UniProt O43143 1-795, looked up)
chain: MSKRHRLDLGEDYPSGKKRAGTDGKDRDRDRDREDRSKDRDRERDRGDREREREKEKEKELRASTNAMLISAGLPPLKASHSAHSTHSAHSTHSTHSAHSTHAGHAGHTSLPQCINPFTNLPHTPRYYDILKKRLQLPVWEYKDRFTDILVRHQSFVLVGETGSGKTTQIPQWCVEYMRSLPGPKRGVACTQPRRVAAMSVAQRVADEMDVMLGQEVGYSIRFEDCSSAKTILKYMTDGMLLREAMNDPLLERYGVIILDEAHERTLATDILMGVLKEVVRQRSDLKVIVMSATLDAGKFQIYFDNCPLLTIPGRTHPVEIFYTPEPERDYLEAAIRTVIQIHMCEEEEGDLLLFLTGQEEIDEACKRIKREVDDLGPEVGDIKIIPLYSTLPPQQQQRIFEPPPPKKQNGAIGRKVVVSTNIAETSLTIDGVVFVIDPGFAKQKVYNPRIRVESLLVTAISKASAQQRAGRAGRTRPGKCFRLYTEKAYKTEMQDNTYPEILRSNLGSVVLQLKKLGIDDLVHFDFMDPPAPETLMRALELLNYLAALNDDGDLTELGSMMAEFPLDPQLAKMVIASCDYNCSNEVLSITAMLSVPQCFVRPTEAKKAADEAKMRFAHIDGDHLTLLNVYHAFKQNHESVQWCYDNFINYRSLMSADNVRQQLSRIMDRFNLPRRSTDFTSRDYYINIRKALVTGYFMQVAHLERTGHYLTVKDNQVVQLHPSTVLDHKPEWVLYNEFVLTTKNYIRTCTDIKPEWLVKIAPQYYDMSNFPQCEAKRQLDRIIAKLQSKEYSQY
notes: ATP-dependent RNA helicase DHX15, human, from the full-length cDNA, cloned into pET28; The cloning paragraph says C-terminal His-tag; also called His-DHX15; DHX15 helicase; not shown: His-tag, C-terminal, kept
B2: CMTr1 full-length, purified from insect cells (enzyme, human, UniProt Q8N1G2 1-835, looked up)
chain: MKRRTDPECTAPIKKQKKRVAELALSLSSTSDDEPPSSVSHGAKASTTSLSGSDSETEGKQHSSDSFDDAFKADSLVEGTSSRYSMYNSVSQKLMAKMGFREGEGLGKYSQGRKDIVEASSQKGRRGLGLTLRGFDQELNVDWRDEPEPSACEQVSWFPECTTEIPDTQEMSDWMVVGKRKMIIEDETEFCGEELLHSVLQCKSVFDVLDGEEMRRARTRANPYEMIRGVFFLNRAAMKMANMDFVFDRMFTNPRDSYGKPLVKDREAELLYFADVCAGPGGFSEYVLWRKKWHAKGFGMTLKGPNDFKLEDFYSASSELFEPYYGEGGIDGDGDITRPENISAFRNFVLDNTDRKGVHFLMADGGFSVEGQENLQEILSKQLLLCQFLMALSIVRTGGHFICKTFDLFTPFSVGLVYLLYCCFERVCLFKPITSRPANSERYVVCKGLKVGIDDVRDYLFAVNIKLNQLRNTDSDVNLVVPLEVIKGDHEFTDYMIRSNESHCSLQIKALAKIHAFVQDTTLSEPRQAEIRKECLRLWGIPDQARVAPSSSDPKSKFFELIQGTEIDIFSYKPTLLTSKTLEKIRPVFDYRCMVSGSEQKFLIGLGKSQIYTWDGRQSDRWIKLDLKTELPRDTLLSVEIVHELKGEGKAQRKISAIHILDVLVLNGTDVREQHFNQRIQLAEKFVKAVSKPSRPDMNPIRVKEVYRLEEMEKIFVRLEMKIIKGSSGTPKLSYTGRDDRHFVPMGLYIVRTVNEPWTMGFSKSFKKKFFYNKKTKDSTFDLPADSIAPFHICYYGRLFWEWGDGIRVHDSQKPQDQDKLSKEDVLSFIQMHRA

Columns and labels:
[1] = biological target: B2; assay: pull-down; purified His-DHX15 and CMTr1 mixed in BDHX buffer (20 mM Tris-HCl pH 8, 70 mM KCl, 3 mM MgCl2, 5 mM DTT, 100 µM ATP), on ice for 10 min; complexes captured on nickel-charged agarose beads; settings: both partners purified
[2] = biological target: B1; assay: cell-based or functional assay

binding result [1] | CMTr1 methyltransferase activity towards RNA92 and RNA68 substrates with equimolar DHX15, in comparison with CMTr1 alone [2] [fold] | Binder
binds |  | B1
 | > 3 | B2
